In article PMC4057017 one finds stoichiometry N (Fabs per trimer) data, which are given here for 1 substance.

The target in this assay is BG505 EnvΔCT trimer (cleaved, membrane-derived) (HIV-1 isolate BG505 (clade A)). The assay is described as follows: single particle EM reconstruction.

On to PGT151 Fab, for which the stoichiometry N (Fabs per trimer) worked out at 2.
